The text below walks through data of the FLAb antibody collection (doi:10.7554/elife.23156).

B1: scFv; the commonest letter at each place (parent)
chain 1: EVKLDETGGGLVQPGRPMKLSCVASGFTFSDYWMNWVRQSPEKGLEWVAQIRNKPYNYETYYSDSVKGRFTISRDDSKSSVYLQMNNLRVEDMGIYYCTGSYYGMDYWGQGTSVTVS
chain 2: DVVMTQTPLSLPVSLGDQASISCRSSQSLVHSNGNTYLRWYLQKPGQSPKVLIYKVSNRFSGVPDRFSGSGSGTDFTLKISRVEAEDLGVYFCSQSTHVPWTFGGGTKLEIK

Data set [1] covers variants of B1. The experiment in a line: Kd (Tite-Seq). The note with it: with fluorescein; format: scFv 4-4-20, heavy + light.
The variants in data set [2] derive from B1. The data set is described as follows: yeast surface expression (ratio to wild type); higher = more expressed. The following applies: format: scFv 4-4-20, heavy + light.

By Kd is commonly meant the free concentration of one partner at which half of the binding sites on the other are occupied at equilibrium, for simple one-to-one binding. As to chain 1 W33N N35M, the dissociation constant Kd in data set [1] is no less than 10 µM. Also, the yeast surface expression in data set [2] is 0.792.

Take chain 1 W33N N35I: in data set [1], the Kd was no less than 10 µM. Further, the yeast surface expression in data set [2] was 0.657.

In the case of chain 1 W33N N35T, in data set [1], the Kd is no less than 10 µM. Also, the yeast surface expression in data set [2] was found to be 0.979.

chain 1 W33S M34T: the Kd in data set [1] was no less than 10 µM. The yeast surface expression in data set [2] is 0.463.

On to chain 1 W33C M34G N35E, for which the Kd in data set [1] was no less than 10 µM. In addition, the yeast surface expression in data set [2] is 1.65.

On to chain 1 W33S W36L, for which the equilibrium dissociation constant (Kd) in data set [1] is no less than 10 µM. Further, the yeast surface expression in data set [2] stood at 0.535.

For chain 1 W33S W36D, the Kd in data set [1] was no less than 10 µM. In addition, the yeast surface expression in data set [2] was 0.562.

As to chain 1 W33S W36I, in data set [1], the Kd is no less than 10 µM. In addition, in data set [2], the yeast surface expression worked out at 0.619.

On to chain 1 W33Y M34I, for which, in data set [1], the Kd was no less than 10 µM. In addition, in data set [2], the yeast surface expression is 0.771.

chain 1 W33M: in data set [1], the dissociation constant (Kd) was no less than 10 µM. Besides, the yeast surface expression in data set [2] is 0.887.

chain 1 W33P: the Kd in data set [1] was no less than 10 µM. In addition, the yeast surface expression in data set [2] was 0.803.

Regarding chain 1 W33Q, the Kd in data set [1] is no less than 10 µM. The yeast surface expression in data set [2] was determined as 1.01.

On to chain 1 W33E, for which the Kd in data set [1] was no less than 10 µM. The yeast surface expression in data set [2] came out at 1.05.

Take chain 1 W33R: the Kd in data set [1] was no less than 10 µM. In addition, the yeast surface expression in data set [2] was 0.877.

As to chain 1 W33I, the Kd in data set [1] is no less than 10 µM. For the same variant, the yeast surface expression in data set [2] is 0.854.

chain 1 W33L: the Kd in data set [1] was no less than 10 µM. Besides, the yeast surface expression in data set [2] is 0.824.

Turning to chain 1 W33N, the dissociation constant (Kd) in data set [1] is no less than 10 µM. The yeast surface expression in data set [2] was determined as 1.01.

Consider chain 1 W33D, for which the Kd in data set [1] is no less than 10 µM. Moreover, the yeast surface expression in data set [2] was determined as 0.986.

Turning to chain 1 W33C, in data set [1], the dissociation constant Kd was no less than 10 µM. For the same variant, the yeast surface expression in data set [2] was 0.827.

With chain 1 W33K, in data set [1], the dissociation constant (Kd) was no less than 10 µM. In addition, in data set [2], the yeast surface expression worked out at 0.699.

In the case of chain 1 W33A, the dissociation constant (Kd) in data set [1] was no less than 10 µM. For the same variant, in data set [2], the yeast surface expression is 0.883.

With chain 1 W33F, in data set [1], the equilibrium dissociation constant (Kd) is 0.0412 µM. Also, in data set [2], the yeast surface expression came to 0.902.

In the case of chain 1 W33H, in data set [1], the Kd was no less than 10 µM. In addition, the yeast surface expression in data set [2] came out at 0.765.

For chain 1 W33G, the Kd in data set [1] is no less than 10 µM. In addition, the yeast surface expression in data set [2] amounted to 0.809.

For the variant chain 1 W33T, the Kd in data set [1] is no less than 10 µM. Also, the yeast surface expression in data set [2] was found to be 1.02.

As for chain 1 W33V, the dissociation constant Kd in data set [1] was no less than 10 µM. In addition, the yeast surface expression in data set [2] is 0.944.

For chain 1 W33S, in data set [1], the Kd is no less than 10 µM. Further, in data set [2], the yeast surface expression was 0.845.

As to chain 1 W33Y, the dissociation constant (Kd) in data set [1] was no less than 10 µM. In data set [2], the yeast surface expression amounted to 0.976.

Turning to chain 1 W33E W36L, the dissociation constant (Kd) in data set [1] was no less than 10 µM. The yeast surface expression in data set [2] worked out at 0.622.

Consider chain 1 W36S V37D, for which the Kd in data set [1] is no less than 10 µM. In addition, the yeast surface expression in data set [2] was found to be 1.34.

As for chain 1 T28W V37C, in data set [1], the Kd came to 0.00128 µM. Further, the yeast surface expression in data set [2] was determined as 0.75.

As to chain 1 W33S N35I, the Kd in data set [1] was no less than 10 µM. Moreover, the yeast surface expression in data set [2] stood at 0.495.

In the case of chain 1 W33Y N35R, the dissociation constant Kd in data set [1] was no less than 10 µM. In data set [2], the yeast surface expression came to 0.524.

Consider chain 1 W33K M34T, for which the Kd in data set [1] was no less than 10 µM. In addition, the yeast surface expression in data set [2] was determined as 0.893.

As to chain 1 W33M V37E, in data set [1], the dissociation constant (Kd) came out at 0.0657 µM. Moreover, the yeast surface expression in data set [2] is 0.701.

As for chain 1 W33M V37L, in data set [1], the dissociation constant Kd is no less than 10 µM. Also, the yeast surface expression in data set [2] is 0.553.

Regarding chain 1 W33M V37P, the equilibrium dissociation constant (Kd) in data set [1] is no less than 10 µM. In addition, the yeast surface expression in data set [2] was 0.458.

For the variant chain 1 W36A, the equilibrium dissociation constant (Kd) in data set [1] was no less than 10 µM. Further, in data set [2], the yeast surface expression was 0.44.

Take chain 1 W36S: the equilibrium dissociation constant (Kd) in data set [1] is no less than 10 µM. For the same variant, the yeast surface expression in data set [2] was determined as 0.813.

Regarding chain 1 W36K, in data set [1], the dissociation constant Kd is no less than 10 µM. The yeast surface expression in data set [2] turned out to be 0.794.

With chain 1 W36C, the Kd in data set [1] was no less than 10 µM. Also, the yeast surface expression in data set [2] was found to be 0.561.

chain 1 W36V: in data set [1], the Kd is no less than 10 µM. Besides, in data set [2], the yeast surface expression amounted to 0.715.

Turning to chain 1 W36Q, the Kd in data set [1] was no less than 10 µM. Moreover, in data set [2], the yeast surface expression is 0.308.

On to chain 1 W36E, for which the Kd in data set [1] is no less than 10 µM. In addition, in data set [2], the yeast surface expression was found to be 0.765.

With chain 1 W36P, the Kd in data set [1] is no less than 10 µM. The yeast surface expression in data set [2] was found to be 0.871.

Take chain 1 W36H: the equilibrium dissociation constant (Kd) in data set [1] was no less than 10 µM. In data set [2], the yeast surface expression came to 0.522.

chain 1 W36Y: the dissociation constant (Kd) in data set [1] stood at 0.00532 µM. In data set [2], the yeast surface expression turned out to be 0.923.

chain 1 W36N: the Kd in data set [1] was no less than 10 µM. In addition, the yeast surface expression in data set [2] is 0.978.

As to chain 1 W36G, the dissociation constant Kd in data set [1] was no less than 10 µM. Moreover, the yeast surface expression in data set [2] worked out at 0.534.

With chain 1 W36D, the Kd in data set [1] was no less than 10 µM. The yeast surface expression in data set [2] worked out at 0.512.

chain 1 W36F: the dissociation constant Kd in data set [1] stood at 0.0015 µM. Also, the yeast surface expression in data set [2] stood at 0.954.

In the case of chain 1 W36R, in data set [1], the Kd is 8.34 µM. In addition, the yeast surface expression in data set [2] worked out at 0.957.

For chain 1 W36M, in data set [1], the equilibrium dissociation constant (Kd) was found to be 0.0259 µM. In data set [2], the yeast surface expression was determined as 0.721.

Consider chain 1 W36T, for which the dissociation constant (Kd) in data set [1] was no less than 10 µM. Besides, the yeast surface expression in data set [2] turned out to be 0.497.

Regarding chain 1 W36I, the dissociation constant (Kd) in data set [1] turned out to be 1.33 µM. In addition, the yeast surface expression in data set [2] came out at 0.756.

Consider chain 1 W36L, for which the Kd in data set [1] was no less than 10 µM. Further, the yeast surface expression in data set [2] was 0.686.

Take chain 1 W108E G109V: the Kd in data set [1] was no less than 10 µM. The yeast surface expression in data set [2] was 0.33.

For the variant chain 1 W108E G109P, the Kd in data set [1] is no less than 10 µM. In data set [2], the yeast surface expression was found to be 0.356.
